Test in all cases: indirect ELISA, coated His-tagged peptide
(An ELISA detects its analyte on a solid surface through an enzyme-linked reagent.)

One test addresses T1, PR20: H-(PR)20HHHHHH-NH2 (C-terminal amide).
T1 peptide: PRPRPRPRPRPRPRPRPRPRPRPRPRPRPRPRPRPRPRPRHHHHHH
Put shortly: (§1)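 His-tagged dipeptide-repeat peptides coated at 50 μg/ml in carbonate buffer pH 9.42; blocked with 2% BSA in PBS/0.1% Tween-20. Human antibodies titrated, 1 h at room temperature, detected with HRP anti-human IgG Fcγ by colorimetric read-out. EC₅₀ from non-linear regression.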

In another test the target is T2, PR10: H-(PR)10HHHHHH-NH2 (C-terminal amide).
T2 peptide: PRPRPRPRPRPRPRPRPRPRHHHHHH
Put shortly: as §1

For the next test, the target named is T3, PR6: H-(PR)6HHHHHH-NH2.
T3 peptide: H-PRPRPRPRPRPRHHHHHH-NH2
Put shortly:
as §1

The target of another test is T4, GR3: H-(GR)3HHHHHH-NH2.
T4 peptide: H-GRGRGRHHHHHH-NH2
Put shortly: as §1

A further test concerns the target T5, GR20: H-(GR)20HHHHHH-NH2 (C-terminal amide).
T5 peptide: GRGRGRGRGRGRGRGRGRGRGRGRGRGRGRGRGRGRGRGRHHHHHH
Put shortly:
as §1

Another test concerns the target T6, GR10: H-(GR)10HHHHHH-NH2 (C-terminal amide).
T6 peptide: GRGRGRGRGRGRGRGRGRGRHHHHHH
Put shortly: as §1

The target of a further test is T7, GR6: H-(GR)6HHHHHH-NH2.
T7 peptide: H-GRGRGRGRGRGRHHHHHH-NH2
Put shortly:
as §1

A further test addresses T8, GR4: H-(GR)4HHHHHH-NH2.
T8 peptide: H-GRGRGRGRHHHHHH-NH2
Put shortly:
as §1

Another test deals with T9, GR5: H-(GR)5HHHHHH-NH2.
T9 peptide: H-GRGRGRGRGRHHHHHH-NH2
Put shortly:
as §1

Another test addresses T10, GP10: H-(GP)10HHHHHH-NH2 (C-terminal amide).
T10 peptide: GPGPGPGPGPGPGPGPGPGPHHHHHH
Put shortly:
as §1

For the next test, the target named is T11, PA10: H-(PA)10HHHHHH-NH2 (C-terminal amide).
T11 peptide: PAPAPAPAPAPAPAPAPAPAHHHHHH
Put shortly:
as §1

The next test addresses T12, PA20: H-(PA)20HHHHHH-NH2 (C-terminal amide).
T12 peptide: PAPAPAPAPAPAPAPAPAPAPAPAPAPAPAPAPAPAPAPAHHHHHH
Put shortly: as §1

The next test has as its target T13, PA5: H-(PA)5HHHHHH-NH2.
T13 peptide: H-PAPAPAPAPAHHHHHH-NH2
Put shortly: as §1

The next test deals with T14, PA6: H-(PA)6HHHHHH-NH2.
T14 peptide: H-PAPAPAPAPAPAHHHHHH-NH2
Put shortly:
as §1

One may read the EC50 as the concentration needed to bring the measured effect to its halfway point. Read a low EC50 as higher potency in that assay.

B1: NI-308.24E11 (antibody, V domains shown)
VH: QVQLQESGPGLVKPSETLSLTCTVSTTSLRSYFWSWIRQPPGKGLEWIGYVYYSGSTIYNPSLKNRVTISIDTSKNQFSLNLRSVTAADTAMYFCARGVPAETDARDFPPYYFDHWGQGTLVTVSS
VL: CDIQLTQSPSSLSASVGNRITFTCQASQDIRYYLNWYQQKPGKAPKLLIYDVSNLDTGVPPRFSGSGSGTNFTFTISSLQPEDIAVYYCQQYEGLPVTFGGGTKVEIK
notes: Recombinant complete human IgG1, kappa
In the case of B1, the figures for the EC50 with PR20: H-(PR)20HHHHHH-NH2, in the test with PR10: H-(PR)10HHHHHH-NH2 and with PR6: H-(PR)6HHHHHH-NH2 were 11.3 nM, 31.7 nM and more than 200 nM, respectively.

B2: NI-308.6B11 (antibody, V domains shown)
VH: EVQLVQSGAEVKRPGASVKVSCKVSGYTLTELSMHWVRQAPGKGLEWMGGFDPEDGETVYAQKFQGRVTMTEDTSTDTAYMELSSLRSEDTALYHCATYGSSWHWNEGNEGSYYFDYWGQGTLVTVSS
VL: CDIQMTQSPSSLSASVGDRVTITCQASQDISIYLNWYQQKPGKAPKLLIYDASNLETGVPSRFSGSGSGTDFTFTISGLQPEDVARYYCQQYDDLPITFGQGTRLEIK
notes: as for B1
For the molecule B2, the EC50 with GR3: H-(GR)3HHHHHH-NH2 turned out to be 14.3 nM; in the test with GR20: H-(GR)20HHHHHH-NH2 it was 0.25 nM; with GR10: H-(GR)10HHHHHH-NH2 it was 1.3 nM; with GR6: H-(GR)6HHHHHH-NH2, 0.33 nM; with GR4: H-(GR)4HHHHHH-NH2, 13.2 nM; in the test with GR5: H-(GR)5HHHHHH-NH2, 0.47 nM.

B3: NI-308.46E9 (antibody, V domains shown)
VH: QVQLQESGPGLVKPSETLSLTCTVSGASISGSTYYWGWIRQPPGKGLEYIGRIYYSGSTYYNPSLKSRATISVDTSKNQLSLTLSSVTAADTAVYYCVRPFYAGSGNSPFDYWGQGTLVTVSS
VL: CEIVLTQSPATVSVSPGERATLSCRASQSVSTNLAWYQQKPGQPPRLLIYGASTRATGIPARFSGSGSGAEFTLTISSLQSEDFVVYYCQQYNNWPPAFGGGTKVEIK
notes: as for B1
Molecule B3 had an EC50 with GP10: H-(GP)10HHHHHH-NH2 of 63.3 nM.

B4: NI-308.4M1 (antibody, V domains shown)
VH: EVQLVETGGGVVQPGGSLRLSCEASGFTIGTYAMHWVRQFPGKGLDWVAVISFDGTTEYYTDAVKGRFTISRDNAKNTLYLQMNYLRGDDTAIYFCARDFTSSGETGSWTQVPDLWGQGTLVTVSS
VL: CEIVMTQSPATLSLSPGERATLSCRASQSVTKYLAWYQQKPGQAPRLLIYDVSYRAAGTPARFSGSGSGTDFTLTISSLEPEDFAVYYCHQRSSWPPVTFGGGTKVEIK
notes: as for B1
With B4, the EC50 amounted to 0.06 nM with PA10: H-(PA)10HHHHHH-NH2, 0.06 nM with PA20: H-(PA)20HHHHHH-NH2, 26.9 nM in the test with PA5: H-(PA)5HHHHHH-NH2 and 4.3 nM in the test with PA6: H-(PA)6HHHHHH-NH2.

(Values after patent publication US20200010567A1 (NEURIMMUNE, published 2020).)
